Data from the supplement of paper PMC6757056.
± gives the standard deviation of the averaged measurements.

B1: library; a variant is named by its letters at N, in order (parent)
chain: GCUGUCACCGGAAUACCAGCAUCGUCUUGAUGCCCUUGGAAGUCCGGUCUGAUGAGUCCNNNNNGGACGAAACAGC
B2: library; a variant is named by its letters at N, in order (parent)
chain: GCUGUCACCGGUGUAUUACCCUAGUGGUCGACCGGUCUGAUGAGUCUNNNNNNAGACGAAACAGC

Tests used:
theophylline [1] = variants of: B1; assay: FACS-Seq fitted mean relative fluorescence mCherry/BFP without ligand (log10 relative fluorescence); higher = higher reporter protein expression; settings: HEK293T, ligand present: no
Summary of the method: (§1)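 With or without ligand for 48 h, enriched HEK293T libraries carrying a lentiviral ribozyme-switch mCherry reporter and EF1α-BFP were sorted into 6 mCherry/BFP bins. Bin genomic DNA was amplified by PCR, barcoded and sequenced on MiSeq. Fluorescence was taken from normal fits to the resulting bin counts. Each fitted mean of log10(mCherry/BFP) was scaled to five spiked-in control ribozymes.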

theophylline [2] = variants of: B1; assay: normalized RNA/DNA level with ligand (relative to sTRSVctl = 100) (log10 (% of sTRSVctl)); higher = less ribozyme self-cleavage, higher mRNA level; settings: ligand concentration (+) RNA-Seq: 5 mM, HEK293T, reporter: mCherry (pCS4076), ligand present: yes
Summary of the method: (§2)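 Library plasmids carrying ribozyme switches linked to mCherry, or to eGFP in some ligand experiments, were transfected into HEK293T at 4 µg per 6-well well, with any ligand added 1 h earlier. Seventy-two hours on, total RNA was extracted with EDTA and reverse-transcribed, amplified, barcoded and sequenced. RNA level was RNA over DNA reads normalized to a spiked-in non-cleaving sequence or to the top sequences, then scaled and log-transformed. The top set was 25 sequences, the transform was ×100 and log10, and sequences needed ≥100 DNA reads.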

theophylline [3] = variants of: B1; assay: normalized RNA/DNA level without ligand (relative to sTRSVctl = 100) (log10 (% of sTRSVctl)); higher = less ribozyme self-cleavage, higher mRNA level; settings: HEK293T, reporter: mCherry (pCS4076), ligand present: no
Summary of the method: as §2

theophylline [4] = variants of: B1; assay: FACS-Seq fitted mean relative fluorescence mCherry/BFP with ligand (log10 relative fluorescence); ligand concentration (+) FACS-Seq: 1 mM; higher = higher reporter protein expression; settings: HEK293T, ligand present: yes
Summary of the method: as §1

hypoxanthine [5] = variants of: B2; assay: FACS-Seq fitted mean relative fluorescence mCherry/BFP without ligand (log10 relative fluorescence); ligand: hypoxanthine (xanthine aptamer); higher = higher reporter protein expression; settings: HEK293T, ligand present: no
Procedure: (§3)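 Hammerhead (sTRSV) ribozyme switch libraries with a ligand aptamer grafted on stem I and a randomized N4-6 loop II, cloned into the 3' UTR of mCherry and transiently transfected into HEK293T cells; RNA-Seq 72 h post transfection with ligand added 1 h before transfection; RNA read count / plasmid DNA read count normalized to the non-cleaving sTRSVctl (x100), log10; sequences with >100 DNA reads. FACS-Seq: lentiviral library sorted into 6 bins after 48 h ligand, log-normal fit mean of mCherry/BFP scaled to controls. Printed sequences are partial switch sequences.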

hypoxanthine [6] = variants of: B2; assay: normalized RNA/DNA level with ligand (relative to sTRSVctl = 100) (log10 (% of sTRSVctl)); ligand: hypoxanthine (xanthine aptamer); higher = less ribozyme self-cleavage, higher mRNA level; settings: ligand concentration (+) RNA-Seq: 5 mM, HEK293T, reporter: mCherry (pCS4076), ligand present: yes
Procedure: as §3

hypoxanthine [7] = variants of: B2; assay: normalized RNA/DNA level without ligand (relative to sTRSVctl = 100) (log10 (% of sTRSVctl)); ligand: hypoxanthine (xanthine aptamer); higher = less ribozyme self-cleavage, higher mRNA level; settings: HEK293T, reporter: mCherry (pCS4076), ligand present: no
Procedure: as §3

hypoxanthine [8] = variants of: B2; assay: FACS-Seq fitted mean relative fluorescence mCherry/BFP with ligand (log10 relative fluorescence); ligand: hypoxanthine (xanthine aptamer); ligand concentration (+) FACS-Seq: 5 mM; higher = higher reporter protein expression; settings: HEK293T, ligand present: yes
Procedure: as §3

| Variant | FACS-Seq fitted mean (log10) (theophylline [1]) | normalized RNA/DNA level with ligand (log10) (theophylline [2]) | normalized RNA/DNA level without ligand (log10) (theophylline [3]) | FACS-Seq fitted mean (log10) (theophylline [4]) | FACS-Seq fitted mean (log10) (hypoxanthine [5]) | normalized RNA/DNA level with ligand (log10) (hypoxanthine [6]) | normalized RNA/DNA level without ligand (log10) (hypoxanthine [7]) | FACS-Seq fitted mean (log10) (hypoxanthine [8]) |
| --- | --- | --- | --- | --- | --- | --- | --- | --- |
| AUUUC | 1 ± 0.085 | 2.01 ± 0.07 | 1.97 ± 0.11 | 0.865 ± 0.018 |  |  |  |  |
| AUUUG | 0.103 ± 0.037 | 2.03 ± 0.083 | 1.93 ± 0.17 | 0.184 ± 0.037 |  |  |  |  |
| AUUUU | 0.213 ± 0.053 | 2.02 ± 0.043 | 1.88 ± 0.062 | 0.194 ± 0.022 |  |  |  |  |
| AUUUA | 0.734 ± 0.078 | 2 ± 0.11 | 1.8 ± 0.08 | 0.834 ± 0.062 |  |  |  |  |
| AUUAA | 0.68 ± 0.04 | 1.94 ± 0.11 | 1.74 ± 0.099 | 0.832 ± 0.041 |  |  |  |  |
| AUUAU | 0.905 ± 0.075 | 2.01 ± 0.021 | 1.88 ± 0.097 | 0.861 ± 0.095 |  |  |  |  |
| AUUAC | 1.05 ± 0.17 | 1.99 ± 0.021 | 1.96 ± 0.12 | 0.926 ± 0.096 |  |  |  |  |
| AUUAG | 0.738 ± 0.021 | 2.049 ± 0.0068 | 1.9 ± 0.094 | 0.738 ± 0.013 |  |  |  |  |
| CUGUC | 0.555 ± 0.065 | 2.021 ± 0.014 | 1.99 ± 0.021 | 0.5114 ± 0.0041 |  |  |  |  |
| CUGUU | -0.291 ± 0.011 | 1.93 ± 0.061 | 1.81 ± 0.07 | -0.12 ± 0.062 |  |  |  |  |
| CUGUA | 0.501 ± 0.02 | 2.08 ± 0.067 | 1.61 ± 0.052 | 0.643 ± 0.013 |  |  |  |  |
| UUGCU | 0.987 ± 0.11 | 1.94 ± 0.083 | 1.91 ± 0.03 | 0.922 ± 0.042 |  |  |  |  |
| GAAAAC |  |  |  |  | 0.271 ± 0.058 | 1.87 ± 0.053 | 1.7 ± 0.033 | 0.271 ± 0.06 |
| GAAAAG |  |  |  |  | 0.326 ± 0.035 | 1.83 ± 0.0058 | 1.47 ± 0.038 | 0.473 ± 0.036 |
| GAAAAU |  |  |  |  | 0.558 ± 0.04 | 1.92 ± 0.034 | 1.8 ± 0.02 | 0.532 ± 0.074 |
| GAAAAA |  |  |  |  | 0.653 ± 0.036 | 1.91 ± 0.027 | 1.8 ± 0.041 | 0.629 ± 0.093 |
| GAAGCG |  |  |  |  | 0.1393 ± 0.001 | 1.8561 ± 0.0014 | 1.4 ± 0.075 | 0.56 ± 0.016 |
| GAAGCA |  |  |  |  | 0.802 ± 0.069 | 1.96 ± 0.03 | 1.76 ± 0.049 | 0.779 ± 0.075 |

| Variant | FACS-Seq fitted mean (log10) (theophylline [1]) | normalized RNA/DNA level with ligand (log10) (theophylline [2]) | normalized RNA/DNA level without ligand (log10) (theophylline [3]) | FACS-Seq fitted mean (log10) (theophylline [4]) | FACS-Seq fitted mean (log10) (hypoxanthine [5]) | normalized RNA/DNA level with ligand (log10) (hypoxanthine [6]) | normalized RNA/DNA level without ligand (log10) (hypoxanthine [7]) | FACS-Seq fitted mean (log10) (hypoxanthine [8]) |
| --- | --- | --- | --- | --- | --- | --- | --- | --- |
| UAACCC |  |  |  |  | 0.667 ± 0.078 | 1.94 ± 0.08 | 1.856 ± 0.0018 | 0.767 ± 0.065 |
| UAACCG |  |  |  |  | 0.631 ± 0.023 | 1.95 ± 0.04 | 1.68 ± 0.033 | 0.756 ± 0.013 |
| AAAAUG |  |  |  |  | 0.362 ± 0.024 | 1.857 ± 0.017 | 1.51 ± 0.044 | 0.671 ± 0.053 |
| AAAAUU |  |  |  |  | 0.401 ± 0.01 | 1.93 ± 0.04 | 1.86 ± 0.041 | 0.491 ± 0.064 |
| UAAAGG |  |  |  |  | 0.355 ± 0.035 | 1.84 ± 0.023 | 1.45 ± 0.05 | 0.675 ± 0.094 |
| UAAAGU |  |  |  |  | 0.334 ± 0.017 | 1.89 ± 0.05 | 1.54 ± 0.076 | 0.708 ± 0.063 |
| UAAAGC |  |  |  |  | 0.687 ± 0.044 | 1.92 ± 0.024 | 1.799 ± 0.0067 | 0.694 ± 0.029 |
| AAAGAG |  |  |  |  | -0.112 ± 0.064 | 1.8 ± 0.025 | 1.32 ± 0.042 | 0.451 ± 0.045 |
| AAAGAA |  |  |  |  | 0.0245 ± 0.07 | 1.9 ± 0.028 | 1.715 ± 0.0039 | 0.207 ± 0.017 |
| AAAGAU |  |  |  |  | 0.523 ± 0.055 | 1.895 ± 0.016 | 1.68 ± 0.017 | 0.708 ± 0.025 |
| AAACAU |  |  |  |  | 0.519 ± 0.022 | 1.86 ± 0.028 | 1.762 ± 0.0068 | 0.664 ± 0.099 |
| AAACAA |  |  |  |  | 0.4127 ± 0.0021 | 1.902 ± 0.011 | 1.73 ± 0.022 | 0.382 ± 0.014 |
| AAACAG |  |  |  |  | -0.248 ± 0.031 | 1.77 ± 0.058 | 1.35 ± 0.055 | 0.234 ± 0.03 |
| UAAGAC |  |  |  |  | 0.419 ± 0.024 | 1.87 ± 0.05 | 1.82 ± 0.035 | 0.507 ± 0.024 |
| UAAGAA |  |  |  |  | 0.349 ± 0.3 | 1.91 ± 0.025 | 1.68 ± 0.011 | 0.395 ± 0.051 |
| UAAGAG |  |  |  |  | 0.312 ± 0.071 | 1.833 ± 0.013 | 1.528 ± 0.011 | 0.422 ± 0.032 |
| UAAAAC |  |  |  |  | 0.723 ± 0.03 | 1.914 ± 0.0064 | 1.826 ± 0.0019 | 0.769 ± 0.068 |
| UAAAAU |  |  |  |  | 0.434 ± 0.055 | 1.89 ± 0.071 | 1.76 ± 0.0046 | 0.454 ± 0.039 |
